Reference: PMC5662687 (2017)

Target: LFA-1 I domain I domain (Homo sapiens, UniProt P20701)
Test: SPR

Kd: 1.5 mM
B1: ICAM-1 (protein)
chain: QTSVSPSKVILPRGGSVLVTCSTSCDQPKLLGIETPLPKKELLLPGNNRKVYELSNVQEDSQPMCYSNCPDGQSTAKTFLTVYWTPERVELAPLPSWQPVGKNLTLRCQVEGGAPRANLTVVLLRGEKELKREPAVGEPAEVTTTVLVRRDHHGANFSCRTELDLRPQGLELFENTSAPYQLQTFVLPATPPQLVSPRVLEVDTQGTVVCSLDGLFPVSEAQVHLALGDQRLNPTVTYGNDSFSAKASVSVTAEDEGTQRLTCAVILGNQSQETLQTVTIYSFPAPNVILTKPEVSEGTEVTVKCEAHPRAKVTLNGVPAQPLGPRAQLLLKATPEDNGRSFSCSATLEVAGQLIHKNQTRELRVLYGPRLDERDCPGNWTWPENSQQTPMCQAWGNPLPELKCLKDGTFPLPIGESVTVTRDLEGTYLCRARSTQGEVTRKVTVNVLSPRYE
